These results are taken from publication PMC5347793, “Transcription factor LSF-DNMT1 complex dissociation by FQI1 leads to aberrant DNA methylation and gene expression” (Oncotarget, 2016).

The chains are these.
B1: GST-DNMT1 (amino acids 431-836) (domain or fragment, human, UniProt P26358 431-836, looked up)
chain: IELFFSGSAKPIYDDDPSLEGGVNGKNLGPINEWWITGFDGGEKALIGFSTSFAEYILMDPSPEYAPIFGLMQEKIYISKIVVEFLQSNSDSTYEDLINKIETTVPPSGLNLNRFTEDSLLRHAQFVVEQVESYDEAGDSDEQPIFLTPCMRDLIKLAGVTLGQRRAQARRQTIRHSTREKDRGPTKATTTKLVYQIFDTFFAEQIEKDDREDKENAFKRRRCGVCEVCQQPECGKCKACKDMVKFGGSGRSKQACQERRCPNMAMKEADDDEEVDDNIPEMPSPKKMHQGKKKKQNKNRISWVGEAVKTDGKKSYYKKVCIDAETLEVGDCVSVIPDDSSKPLYLARVTALWEDSSNGQMFHAHWFCAGTDTVLGATSDPLELFLVDECEDMQLSYIHSKVKVIY
B2: GST-LSF (amino acids 65-259), DNA binding domain (domain or fragment, human, UniProt Q12800 65-259, looked up)
chain: LPFQYVLCAATSPAVKLHDETLTYLNQGQSYEIRMLDNRKLGELPEINGKLVKSIFRVVFHDRRLQYTEHQQLEGWRWNRPGDRILDIDIPMSVGIIDPRANPTQLNTVEFLWDPAKRTSVFIQVHCISTEFTMRKHGGEKGVPFRVQIDTFKENENGEYTEHLHSASCQIKVFKPKGADRKQKTDREKMEKRTP
notes: Cloned into pGEX-5X-1; also called LSF65-259; source: E. coli, captured on Glutathione Sepharose beads
B3: MBP-LSF fusion protein (purified full-length LSF) (natural protein, human, UniProt Q12800 1-502, looked up)
chain: MAWALKLPLADEVIESGLVQDFDASLSGIGQELGAGAYSMSDVLALPIFKQEESSLPPDNENKILPFQYVLCAATSPAVKLHDETLTYLNQGQSYEIRMLDNRKLGELPEINGKLVKSIFRVVFHDRRLQYTEHQQLEGWRWNRPGDRILDIDIPMSVGIIDPRANPTQLNTVEFLWDPAKRTSVFIQVHCISTEFTMRKHGGEKGVPFRVQIDTFKENENGEYTEHLHSASCQIKVFKPKGADRKQKTDREKMEKRTPHEKEKYQPSYETTILTECSPWPEITYVNNSPSPGFNSSHSSFSLGEGNGSPNHQPEPPPPVTDNLLPTTTPQEAQQWLHRNRFSTFTRLFTNFSGADLLKLTRDDVIQICGPADGIRLFNALKGRMVRPRLTIYVCQESLQLREQQQQQQQQQQKHEDGDSNGTFFVYHAIYLEELTAVELTEKIAQLFSISPCQISQIYKQGPTGIHVLISDEMIQNFQEEACFILDTMKAETNDSYHIILK
B4: GST-DNMT1 (amino acids 1-446) (domain or fragment, human, UniProt P26358 1-446, looked up)
chain: MPARTAPARVPTLAVPAISLPDDVRRRLKDLERDSLTEKECVKEKLNLLHEFLQTEIKNQLCDLETKLRKEELSEEGYLAKVKSLLNKDLSLENGAHAYNREVNGRLENGNQARSEARRVGMADANSPPKPLSKPRTPRRSKSDGEAKPEPSPSPRITRKSTRQTTITSHFAKGPAKRKPQEESERAKSDESIKEEDKDQDEKRRRVTSRERVARPLPAEEPERAKSGTRTEKEEERDEKEEKRLRSQTKEPTPKQKLKEEPDREARAGVQADEDEDGDEKDEKKHRSQPKDLAAKRRPEEKEPEKVNPQISDEKDEDEKEEKRRKTTPKEPTEKKMARAKTVMNSKTHPPKCIQCGQYLDDPDLKYGQHPPDAVDEPQMLTNEKLSIFDANESGFESYEALPQHKLTCFSVYCKHGHLCPIDTGLIEKNIELFFSGSAKPIYDDD

The target in test [1] is B3. Description: pull-down; GST-DNMT1 fusions on beads incubated with 1 ug purified MBP-LSF; immunoblot with anti-LSF. The following applies: both partners purified. In general terms: Immunoblotting shows a protein as a band on a membrane.
For test [2], the target named is T1, purified full-length DNMT1 (recombinant, baculovirus expressed) (human, UniProt P26358 1-1616).
T1 construct: DNMT1, human, full length; source: recombinant baculovirus expressed, purified
Description: pull-down; as a4, in the presence of 2.5 uM FQI1. The following applies: both partners purified.

Test [3] addresses T1, purified full-length DNMT1 …. Description: cell-based or functional assay.

As to B1, the binding result in test [1] is “binds”. Take B2: the binding result in test [2] is on record as “binds”.

As for B3, the “DNA methyltransferase activity of purified DNMT1 (80 nM) with His-LSF recombinant protein, molar ratio of His-LSF to DNMT1 from 2:1 to 4:1” value in test [3] was ~2 fold. For the molecule B4, the binding result in test [1] was “binds”.
